From patent US20230303667A1 (EMORY UNIVERSITY, published 2023)

T1: Ebola Zaire (Kikwit strain) glycoprotein (Ebola Zaire (Kikwit strain), UniProt P87666 33-676)
T1 sequence: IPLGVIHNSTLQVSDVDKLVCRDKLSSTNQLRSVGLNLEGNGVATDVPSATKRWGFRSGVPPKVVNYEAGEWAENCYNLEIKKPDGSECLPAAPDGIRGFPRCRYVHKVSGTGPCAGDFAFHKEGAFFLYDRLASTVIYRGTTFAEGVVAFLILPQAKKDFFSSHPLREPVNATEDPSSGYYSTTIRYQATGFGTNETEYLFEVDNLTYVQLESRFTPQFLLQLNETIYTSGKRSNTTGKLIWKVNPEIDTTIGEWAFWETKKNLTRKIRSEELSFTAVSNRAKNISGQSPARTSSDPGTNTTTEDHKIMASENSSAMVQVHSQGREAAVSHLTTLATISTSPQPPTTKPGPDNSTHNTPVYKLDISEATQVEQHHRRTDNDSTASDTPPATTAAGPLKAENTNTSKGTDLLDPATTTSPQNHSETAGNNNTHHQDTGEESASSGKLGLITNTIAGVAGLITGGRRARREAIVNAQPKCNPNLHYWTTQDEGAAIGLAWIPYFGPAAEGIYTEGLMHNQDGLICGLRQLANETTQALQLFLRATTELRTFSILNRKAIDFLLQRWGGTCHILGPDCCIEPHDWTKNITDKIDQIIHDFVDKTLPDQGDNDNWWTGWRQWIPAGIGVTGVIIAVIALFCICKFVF


Biological target: T1, Ebola Zaire (Kikwit strain) glycoprotein
Assay: cell-based or functional assay

Binder | PRNT50 (ug/ml) for Ebola Zaire (Kikwit strain)
5.1.10B3 (antibody, V domains shown) VH: EVQLVESGGGLVQPGGSLRLSCAASGFTFRSYDMHWVRQATGKGLEWVSAIGTAGDTYYPGSVKGRFTISRENAKNSLYLQMNSLRAEDTAVYYCARVRFGDTAVDYWGQGTLVTVSS VL: DIQMTQSPSSLSASVGDRVTITCRASQSISSFLNWHQQKPGKAPKLLIYAASSLQSGVPSRFSGSGSGTDFTLTISSLQPEDFAIYYCQQSYISPFTFGPGTKVDIK | 3.13 µg/mL
2.1.1D07 (antibody, V domains shown) VH: EVQLLESGGGLVQPGGSLRLSCAASGFTFSTYGMSWVRQAPGKGLEWVSGISGSGGITYYADSVRGRFTISRDNSKNTLYLRMNSLRAEDTAVYYCAKVGEYYDFWSGYSPFEYWGQGTL VL: EIVLTQSPGTLSLSPGERATLSCRASQSVSSSYLAWYQQKPGQAPRLLIYGAFNRATGIPDRFSGSGSGTDFTLTISRLEPEDFAVYYCQLYGSSPWTFGQGTKVEIK | 6.25 µg/mL
5.6.1A02 (antibody, V domains shown) VH: EVQLVESGGGLIQPGGSLRLSCAASGFAVRSNYLSWVRQAPGKGLEWVSLIYSGGLTAYADSVEGRFTISRDNSKNTLYLQMNSLRVEDTALYYCARVASSAGTFYYGMDVWGQGTTVTVSS VL: not shown | 0.195 µg/mL
2.1.1D05 (antibody, V domains shown) VH: EVQLVESGGGLVKPGGSLRLSCAASGFTFSNAWMNWVRQAPGKGLEWVGRIKSKTDGGAADYAAPVKGRFTISRDDSKNTLYLQMNSLKTEDTAVYFCTTVYRYNYDSVWGQGTLVTVSS VL: QSVLTQPPSVSGAPGQRVTISCTGSSSNIGAGYDVYWYQQLPGTAPKLLIYGNSNRPSGVPDRFSGSKSGTSASLAITGLQAEDEADYYCQSFDSSLRDSWVFGGGTKLTVL | 3.13 µg/mL
9.6.3D06 (antibody, V domains shown) VH: EVQLLESGGGLVQPGGSLRLSCAASGFTFSKYAMIWVRQAPGKGLQWVAGINKSGGRTYYADSVRGRFTISRDNSKNTLYLQMKSLRADDTAMYYCAKEGSPLSDVLLVAAPFGWFDPWGQGTLVTVSS VL: DIQMTQSPSTLSASVGDRVTITCRASQRINNLVAWYQQKPGKAPKVMIYDASSLKSGVPSRFSGSGSGTEFTLTISSLQPDDFATYFCQQYDTDSGWTFGQGTKVEIK | 1.57 µg/mL
